Measured values published in paper PMC4728127, “A mutation uncouples the tubulin conformational and GTPase cycles, revealing allosteric control of microtubule dynamics” (eLife, 2015).

T1: wild-type yeast αβ-tubulin (S. cerevisiae, UniProt P09733 1-447; P02557 1-457)
T1 chain 1: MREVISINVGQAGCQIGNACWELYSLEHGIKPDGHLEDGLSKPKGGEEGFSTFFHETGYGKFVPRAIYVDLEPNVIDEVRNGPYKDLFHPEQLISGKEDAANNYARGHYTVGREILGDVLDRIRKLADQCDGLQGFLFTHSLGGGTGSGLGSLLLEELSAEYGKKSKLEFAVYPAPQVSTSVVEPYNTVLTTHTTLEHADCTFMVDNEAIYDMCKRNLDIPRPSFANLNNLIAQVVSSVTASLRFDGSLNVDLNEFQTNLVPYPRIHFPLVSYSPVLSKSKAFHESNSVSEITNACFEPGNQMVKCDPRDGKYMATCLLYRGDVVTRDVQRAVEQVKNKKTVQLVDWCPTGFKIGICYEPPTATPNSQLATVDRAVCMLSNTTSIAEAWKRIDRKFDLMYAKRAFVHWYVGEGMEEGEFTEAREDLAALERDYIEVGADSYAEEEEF
T1 chain 2: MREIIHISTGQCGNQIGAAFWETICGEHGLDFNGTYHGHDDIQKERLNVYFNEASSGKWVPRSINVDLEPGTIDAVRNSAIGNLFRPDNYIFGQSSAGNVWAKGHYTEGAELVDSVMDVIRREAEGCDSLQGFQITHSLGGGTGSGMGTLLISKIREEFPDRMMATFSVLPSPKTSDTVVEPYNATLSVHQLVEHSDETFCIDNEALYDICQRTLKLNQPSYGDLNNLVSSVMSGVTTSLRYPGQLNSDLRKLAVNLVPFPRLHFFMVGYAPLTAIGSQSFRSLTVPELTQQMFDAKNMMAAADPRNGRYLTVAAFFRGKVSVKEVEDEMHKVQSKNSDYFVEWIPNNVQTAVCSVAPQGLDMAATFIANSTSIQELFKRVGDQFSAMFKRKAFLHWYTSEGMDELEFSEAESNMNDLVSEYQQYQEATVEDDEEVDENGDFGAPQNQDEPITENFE


What was measured:
β:T238A αβ-tubulin [1] = target: T2, β:T238A αβ-tubulin (S. cerevisiae, UniProt P09733 1-447; P02557 1-457, T238A); assay: TIRF microscopy of Bim1-GFP on microtubules; dynamic microtubules grown from sea urchin axonemes in flow chambers with 1 mM GTP; 5 or 50 nM Bim1-GFP in solution; 30 °C; conditions: both partners purified
T2 construct: Tub1p, α-tubulin of S. cerevisiae; Tub2p, β-tubulin of S. cerevisiae, with T238A made by QuikChange on the wild-type Tub2 expression plasmid; Unpolymerized heterodimer in the AUC; microtubules in the other assays; also called T238A tubulin; β:T238A microtubules

β:C354A αβ-tubulin = target: T3, β:C354A αβ-tubulin (S. cerevisiae, UniProt P09733 1-447; P02557 1-457, C354A); assay: as above; conditions: both partners purified
T3 construct: Tub1p, α-tubulin of S. cerevisiae; Tub2p, β-tubulin of S. cerevisiae, with C354A (yeast numbering); The making of the C354A plasmid is not described; Used as microtubules; also called β:C354A microtubules

[2] = target: T4, wild-type yeast αβ-tubulin (S. cerevisiae, UniProt P09733 1-447; P02557 1-457); assay: as above; conditions: both partners purified
T4 construct: Tub1p, α-tubulin of S. cerevisiae; Ayaz et al., 2012; 2014); Tub2p, β-tubulin of S. cerevisiae; Unpolymerized heterodimer in the AUC; polymerised into microtubules in the Bim1-GFP, growth and sedimentation assays; also called WT; wild-type αβ-tubulin

[3] = target: T1, wild-type yeast αβ-tubulin; assay: AUC
β:T238A αβ-tubulin [4] = target: β:T238A αβ-tubulin (S. cerevisiae, UniProt P09733 1-447; P02557 1-457, T238A); assay: AUC
β:T238A αβ-tubulin [5] = target: T2, β:T238A αβ-tubulin; assay: AUC; sedimentation velocity, 50,000 rpm, 20 °C, absorbance at 229 nm; 0.15 µM T238A αβ-tubulin with 0.015-5 µM TOG1 or TOG2; RB100 (25 mM Tris pH 7.5, 1 mM MgCl2, 1 mM EGTA, 100 mM NaCl) with 20 µM GTP; analysed with SEDFIT and SEDPHAT; conditions: both partners purified
[6] = target: T4, wild-type yeast αβ-tubulin; assay: as above; conditions: both partners purified

| binding result (β:T238A αβ-tubulin [1]) | binding result (β:C354A αβ-tubulin) | binding result [2] | Kd [3] | Kd (β:T238A αβ-tubulin [4]) | binding result (β:T238A αβ-tubulin [5]) | binding result [6] | Binder |
| --- | --- | --- | --- | --- | --- | --- | --- |
| binds | binds | binds | – | – | – | – | Bim1-GFP fusion protein (natural protein, yeast, UniProt P40013 1-344, looked up, Bim1p, the yeast EB1 family protein; C-terminal EGFP-tag followed by a Strep-tag II; also called Bim1p; yeast EB1 protein; source: E. coli BL21(DE3), purified (His60 Superflow column, Strep-Tactin Superflow column); not shown: EGFP, C-terminal, kept) MSAGIGESRTELLTWLNGLLNLNYKKIEECGTGAAYCQIMDSIYGDLPMNRVKFNATAEYEFQTNYKILQSCFSRHGIEKTVYVDKLIRCKFQDNLEFLQWLKKHWIRHKDESVYDPDARRKYRPIITNNSATKPRTVSNPTTAKRSSSTGTGSAMSGGLATRHSSLGINGSRKTSVTQGQLVAIQAELTKSQETIGSLNEEIEQYKGTVSTLEIEREFYFNKLRDIEILVHTTQDLINEGVYKFNDETITGHGNGNGGALLRFVKKVESILYATAEGFEMNDGEDELNDKNLGEHGTVPNQGGYANSNGEVNGNEGSNHDVIMQNDEGEVGVSNNLIIDEETF |
| – | – | – | 180 nM | 160 nM | binds | binds | TOG2(318-560) of Stu2p (domain or fragment, yeast, UniProt P46675 318-560, looked up, Stu2p, yeast microtubule polymerase, TOG2 domain, residues 318-560; Plasmid described in Ayaz et al., 2012; 2014; also called Stu2 TOG2 domain) MLPEETILDKLPKDFQERITSSKWKDRVEALEEFWDSVLSQTKKLKSTSQNYSNLLGIYGHIIQKDANIQAVALAAQSVELICDKLKTPGFSKDYVSLVFTPLLDRTKEKKPSVIEAIRKALLTICKYYDPLASSGRNEDMLKDILEHMKHKTPQIRMECTQLFNASMKEEKDGYSTLQRYLKDEVVPIVIQIVNDTQPAIRTIGFESFAILIKIFGMNTFVKTLEHLDNLKRKKIEETVKTL |
| – | – | – | 90 nM | 50 nM | binds | binds | TOG1(1-317) of Stu2p (domain or fragment, yeast, UniProt P46675 1-317, looked up, Stu2p, yeast microtubule polymerase, TOG1 domain, residues 1-317; Plasmid described in Ayaz et al., 2012; 2014; also called Stu2 TOG1 domain) MSGEEEVDYTTLPLEERLTYKLWKARLEAYKELNQLFRNSVGDISRDDNIQIYWRDPTLFAQYITDSNVVAQEQAIVALNSLIDAFASSSLKNAHNITLISTWTPLLVEKGLTSSRATTKTQSMSCILSLCGLDTSITQSVELVIPFFEKKLPKLIAAAANCVYELMAAFGLTNVNVQTFLPELLKHVPQLAGHGDRNVRSQTMNLIVEIYKVTGNNSDLLEEILFKKLKPIQVKDLHKLFAKVGDEPSSSKMLFEWEKRELEKKRSQEEEARKRKSILSNDEGEYQIDKDGDTLMGMETDMPPSKQQSGVQIDTFS |
